The source of these data is PMC2700083, “A covalent peptide inhibitor of RGS4 identified in a focused one-bead, one compound library screen” (BMC Pharmacology, 2009).

T1: RGS8 full length, MBP fusion (human, UniProt P57771 1-180, biotin (sites not given))
T1 construct: RGS8, human, full length; source: expressed, purified and labeled as described previously [5]
T1 sequence (looked up): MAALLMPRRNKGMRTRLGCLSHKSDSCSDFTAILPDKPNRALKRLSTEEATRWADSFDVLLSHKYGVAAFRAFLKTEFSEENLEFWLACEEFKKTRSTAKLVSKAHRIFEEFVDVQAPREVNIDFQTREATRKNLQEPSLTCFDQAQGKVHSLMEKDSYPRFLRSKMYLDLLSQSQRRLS

T2: RGS16 full length, MBP fusion (human, UniProt O15492 1-202)
T2 construct: RGS16, human, full length; source: expressed, purified and labeled as described previously [5]
T2 sequence (looked up): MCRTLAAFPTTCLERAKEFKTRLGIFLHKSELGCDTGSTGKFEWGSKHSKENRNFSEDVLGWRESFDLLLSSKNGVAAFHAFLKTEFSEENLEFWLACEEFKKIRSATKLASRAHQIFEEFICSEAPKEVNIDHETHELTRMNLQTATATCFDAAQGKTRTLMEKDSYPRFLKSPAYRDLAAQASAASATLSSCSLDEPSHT

T3: RGS7 RGS domain (aa: 305–453), MBP fusion (human, UniProt P49802 305-453)
T3 construct: RGS7, human, RGS domain, aa 305-453; source: expressed, purified and labeled as described previously [5]
T3 sequence (looked up): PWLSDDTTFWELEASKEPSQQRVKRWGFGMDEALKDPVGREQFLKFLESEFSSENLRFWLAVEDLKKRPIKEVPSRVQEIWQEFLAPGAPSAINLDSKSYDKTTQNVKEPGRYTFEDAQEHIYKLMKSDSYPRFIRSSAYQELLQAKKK

T4: RGS19ΔC11 (amino acids 1–209), MBP fusion (human, UniProt P49795 1-209)
T4 construct: RGS19, human, ΔC11, amino acids 1-209; source: expressed, purified and labeled as described previously [5]
T4 sequence (looked up): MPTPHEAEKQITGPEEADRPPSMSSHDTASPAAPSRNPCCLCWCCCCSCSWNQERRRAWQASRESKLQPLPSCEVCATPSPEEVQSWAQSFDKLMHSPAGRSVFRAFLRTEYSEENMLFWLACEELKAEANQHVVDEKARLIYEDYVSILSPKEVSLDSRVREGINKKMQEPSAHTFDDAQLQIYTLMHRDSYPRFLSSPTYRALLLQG

B1: MBP-RGS4Δ51N C148A (domain or fragment)
chain: not shown
modifications: biotin (sites not given)
notes: RGS4Δ51N; source: expressed, purified and labeled as described previously [5]; not shown: MBP, N-terminal, kept
B2: Peptide 2nd (GTCFGTCW-NH2, S-S) (peptide)
peptide: H-GTCFGTCW-NH2
modifications: disulfide 3-7 (inferred)
notes: hit peptide from the focused OBOC library screen; also called hit 2; source: synthetic peptide
B3: Peptide 5nd (Tyr-Trp-c[Cys-Lys-Gly-Leu-Cys]-Lys-NH2, S-S) (peptide)
peptide: H-YWCKGLCK-NH2
modifications: disulfide 3-7
SMILES: CC(C)C[C@@H]1NC(=O)CNC(=O)[C@H](CCCCN)NC(=O)[C@@H](NC(=O)[C@H](Cc2c[nH]c3ccccc23)NC(=O)[C@@H](N)Cc2ccc(O)cc2)CSSC[C@@H](C(=O)N[C@@H](CCCCN)C(N)=O)NC1=O
notes: hit peptide from the focused OBOC library screen; also called peptide 7nd in Roof et al, 2008; hit 5; source: synthetic peptide
B4: Peptide 6nd (KHCYGFCY-NH2, S-S) (peptide)
peptide: H-KHCYGFCY-NH2
modifications: disulfide 3-7 (inferred)
notes: hit peptide from the focused OBOC library screen; also called hit 6; peptide 14 in Roof et al 2008; source: synthetic peptide
B5: Peptide 6ad (Ac-KHCYGFCY-NH2, S-S) (peptide)
peptide: Ac-KHCYGFCY-NH2
modifications: disulfide 3-7 (inferred)
notes: hit peptide from the focused OBOC library screen; source: synthetic peptide
B6: MBP-RGS4Δ51N, wild type, biotinylated (domain or fragment, UniProt P49799 52-205, looked up)
chain: SQEEVKKWAESLENLINHECGLAAFKAFLKSEYSEENIDFWISCEEYKKIKSPSKLSPKAKKIYNEFISVQATKEVNLDSCTREETSRNMLEPTITCFDEAQKKIFNLMEKDSYRRFLKSRFYLDLTNPSSCGAEKQKGAKSSADCTSLVPQCA
modifications: biotin (sites not given)
notes: RGS4 from which the amphipathic N-terminal helix has been removed (RGS4Δ51N); Rat RGS4 is surmised from the group's earlier work; His6 lies between MBP and RGS4 (MBP-His6-RGS4Δ51N) with a TEV site; also called wild type RGS4-biotin; biotin-RGS4; source: expressed, purified and labeled as described previously [5]; not shown: MBP, N-terminal, kept
B7: MBP-RGS4Δ51N C71A (domain or fragment, UniProt P49799 52-205, looked up)
chain: B6 chain with C20A
modifications: biotin (sites not given)
notes: as for B1
B8: MBP-RGS4Δ51N C95A (domain or fragment, UniProt P49799 52-205, looked up)
chain: B6 chain with C44A
modifications: biotin (sites not given)
notes: as for B1
B9: MBP-RGS4Δ51N C132A (domain or fragment, UniProt P49799 52-205, looked up)
chain: B6 chain with C81A
modifications: biotin (sites not given)
notes: as for B1
B10: Peptide 5ad (Ac-YWCKGLCK-NH2, S-S) (peptide)
peptide: Ac-YWCKGLCK-NH2
modifications: disulfide 3-7 (inferred)
notes: as for B5

What all share (details): both partners purified
The target of assay [1] is T5, Gαo, Alexa Fluor 532-labeled (UniProt P59215 1-354, Alexa Fluor 532 label (sites not given)).
T5 construct: G protein alpha subunit Gαo; Used in the presence of AMF (AlCl3, MgCl2, NaF and GDP) to put it into a transition state-like conformation; source: expressed, purified and labeled as described previously [5]
In words: FCPIA (flow cytometry protein interaction assay, Luminex beads); Gαo affinities for RGS4Δ51N wild type and mutants on beads, with AMF. On the technique in general: Flow cytometry measures light scatter and fluorescence of single cells or particles in a stream.

Assay [2] deals with B6. In words: FCPIA (flow cytometry protein interaction assay, Luminex beads); competition at one peptide concentration (50 μM unless the cell says otherwise); 5 nM wild type RGS4-biotin on avidin beads, 25 nM Gαo-Alexa Fluor 532, with AMF (AlCl3, MgCl2, NaF and GDP).
Assay [3] has as its target B6. The assay is described as follows: FCPIA (flow cytometry protein interaction assay, Luminex beads); dose response curves for 5nd with different RGS proteins on beads and labeled Gαo; curves constrained to 100% and 0%.
Assay [4] deals with T1, RGS8 full length, MBP fusion. The assay is described as above.
Assay [5] concerns the target T2, RGS16 full length, MBP fusion. The description is as above.
The target of assay [6] is T3, RGS7 RGS domain (aa: 305–453), MBP …. The description is as above.
Assay [7] has as its target T4, RGS19ΔC11 (amino acids 1–209), MBP …. Described as above.
For assay [8], the target named is B6. In words: FCPIA (flow cytometry protein interaction assay, Luminex beads); dose curves of 5nd on RGS4 cysteine mutants (5 nM, or 20 nM for the mutants with no Cys in the domain or the C-terminus) and labeled Gαo; curves constrained to 100% and 0%.
Assay [9] addresses B7. The assay is described as above.
Assay [10] deals with B9. The assay is described as above.
Assay [11] has as its target B8. The assay is described as above.
The target of assay [12] is B1. Described as above.

Residue numbers refer to the chain shown, from its start. Bridges are numbered along the chain shown (N, C = ends).

T5 sequence (P59215 whole entry): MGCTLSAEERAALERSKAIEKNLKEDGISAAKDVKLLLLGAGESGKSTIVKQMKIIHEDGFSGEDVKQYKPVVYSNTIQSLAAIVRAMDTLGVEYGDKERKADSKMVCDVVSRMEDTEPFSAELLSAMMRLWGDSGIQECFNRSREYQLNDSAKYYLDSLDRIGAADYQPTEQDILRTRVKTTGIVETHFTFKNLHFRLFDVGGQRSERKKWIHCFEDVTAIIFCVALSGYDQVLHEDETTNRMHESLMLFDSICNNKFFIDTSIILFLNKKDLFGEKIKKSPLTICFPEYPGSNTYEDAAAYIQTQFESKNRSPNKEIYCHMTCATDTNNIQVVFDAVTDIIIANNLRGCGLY

For B1, in assay [1], the Kd amounted to 0.00684 µM.
For B2, the “% inhibition of RGS4-Gαo” value in assay [2] was found to be 19%.
Regarding B3, the “% inhibition of RGS4-Gαo” value in assay [2] is 80%. Moreover, the IC50 in assay [3] is 28 µM; in [4], 43 µM; in assay [5], 66 µM; in assay [6], around 175 µM; in assay [7], around 145 µM. In addition, the logIC50 in assay [3] was -4.56 log M; in [4], -4.36 log M; in assay [5], -4.18 log M; in [6] it was around -3.76 log M; in assay [7], around -3.84 log M; in assay [8], -4.36 log M. The logIC50 in assay [9] was -4.34 log M; in [10], -3.86 log M; in [11], -4.71 log M; in [12], -4.27 log M.
Turning to B4, in [2], the “% inhibition of RGS4-Gαo” value was found to be 23%.
Still for that read-out and setting: under B5 stands 27%.
B6 displayed a Kd in assay [1] of 0.0116 µM.
Still for that read-out and setting: to B7 belongs 0.0122 µM; to B8, 0.00817 µM; to B9, 0.0079 µM.
Turning to B10, the “% inhibition of RGS4-Gαo” value in [2] amounted to 37%.

The term Kd denotes the equilibrium constant for the complex coming apart. The term IC50 denotes the concentration needed to halve the response being measured. A low value points to greater potency in that assay.
